# Where no end group is shown, it is not given here. [ ]: non-standard residue; d: D form. 2Nal = N[C@@H](Cc1ccc2ccccc2c1)C(=O)O; d2Nal = N[C@H](Cc1ccc2ccccc2c1)C(=O)O; 2Thi = N[C@@H](Cc1cccs1)C(=O)O; Cha = N[C@@H](CC1CCCCC1)C(=O)O; d2Thi = N[C@H](Cc1cccs1)C(=O)O; dCha = N[C@H](CC1CCCCC1)C(=O)O
# Columns and labels:
# BIR3RING (human) = BIR3RING (human) (UniProt P98170); assay: fluorescence polarization; 20 nM rhodamine-SMAC, BIR3RING titrated
# [1] = molecular target: GST-BIR2 (glutathione-S-transferase-BIR2 fusion protein) (human) (UniProt P98170); assay: fluorescence polarization; 20 nM rhodamine-SMAC, GST-BIR2 from 0 to 495 nM
# Sequence of GST-BIR2 (glutathione-S-transferase-BIR2 fusion protein) (human) (P98170 124-240): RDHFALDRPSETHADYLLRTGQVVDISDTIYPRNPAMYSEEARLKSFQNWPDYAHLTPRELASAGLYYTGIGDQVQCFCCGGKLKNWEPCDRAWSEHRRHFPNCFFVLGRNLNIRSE
# GST-XIAP = GST-XIAP (human, UniProt P98170 1-497); assay: cell-based or functional assay
# Sequence of GST-XIAP (P98170 whole entry): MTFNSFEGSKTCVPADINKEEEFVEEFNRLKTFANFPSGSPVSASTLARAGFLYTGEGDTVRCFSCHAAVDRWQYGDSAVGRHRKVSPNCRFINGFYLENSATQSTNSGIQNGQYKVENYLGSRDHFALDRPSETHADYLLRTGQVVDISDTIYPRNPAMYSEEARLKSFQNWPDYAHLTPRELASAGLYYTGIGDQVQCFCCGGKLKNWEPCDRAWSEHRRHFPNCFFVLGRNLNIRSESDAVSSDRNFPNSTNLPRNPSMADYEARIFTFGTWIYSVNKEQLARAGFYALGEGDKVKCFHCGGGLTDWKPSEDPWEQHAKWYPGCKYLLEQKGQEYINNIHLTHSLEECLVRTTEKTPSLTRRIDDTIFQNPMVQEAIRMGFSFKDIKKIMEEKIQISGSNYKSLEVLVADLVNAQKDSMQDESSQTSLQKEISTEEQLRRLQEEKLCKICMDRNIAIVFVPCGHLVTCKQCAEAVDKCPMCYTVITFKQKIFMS
# Sequence of BIR3RING (human) (P98170 243-497 limits assumed): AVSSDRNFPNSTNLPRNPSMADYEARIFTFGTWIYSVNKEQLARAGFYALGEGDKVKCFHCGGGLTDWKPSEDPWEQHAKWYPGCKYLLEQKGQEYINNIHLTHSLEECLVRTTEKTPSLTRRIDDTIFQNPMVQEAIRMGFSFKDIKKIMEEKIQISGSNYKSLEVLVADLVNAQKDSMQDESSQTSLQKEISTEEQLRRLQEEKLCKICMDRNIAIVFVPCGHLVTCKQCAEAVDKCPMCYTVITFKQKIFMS
Kd (BIR3RING (human)) [nM],Kd [1] [nM],ratio of Vmax for hydrolysis of Ac-DEVD-AFC with and without the peptide (caspase-3 + XIAP) (GST-XIAP),Molecule
–,–,> 2.4,AWW[2Thi] (also: Trp of TPI 1332 batch may retain formyl groups) [TPI 1332-1 / TPI 1352-1]
–,–,> 2.4,A[dW]W[2Thi] [TPI 1352-6]
–,–,> 2.4,[Cha][d2Nal]W[2Thi] (also: Trp may retain a formyl group) [TPI 1332-41]

# Continued, molecule first:
Molecule,Kd (BIR3RING (human)) [nM],Kd [1] [nM],ratio of Vmax for hydrolysis of Ac-DEVD-AFC with and without the peptide (caspase-3 + XIAP) (GST-XIAP)
rhodamine labeled SMAC (rhodamine-SMAC) of Example VII (peptide),80,100,–
[2Nal][dCha]W[dW] [TPI 1352-66],–,–,> 2.4
[2Nal][d2Thi][dF][dW] [TPI 1352-72],–,–,> 2.4
A[dW]W[2Thi] (also: Trp of TPI 1332 batch may retain formyl groups) [TPI 1332-47 / TPI 1352-47],–,–,> 2.4
